Article PMC10014863, “Structural analysis of the housecleaning nucleoside triphosphate pyrophosphohydrolase MazG from Mycobacterium tuberculosis” (Frontiers in Microbiology, 2023)
Changes are numbered by the printed parent chain. Numbers in names are those of the source.

B1: Mtb-MazG E119A (enzyme)
chain: MIVVLVDPRRPTLVPVEAIEFLRGEVQYTEEMPVAVPWSLPAARSAHAGNDAPVLLSSDPNHPAVITRLAAGARLISAPDSQRGERLVDAVAMMDKLRTAGPWESEQTHDSLRRYLLEATYELLDAVRSGSVDQLREELGDLLLQVLFHARIAEDASQSPFTIDDVADTLMRKLGNRAPGVLAGESISLEDQLAQWEAAKASEKARKSVADDVHTGQPALALAQKVIQRAQKAGLPAHLIPDEITSVSVSADVDAENTLRTAVLDFIDRLRCAERAIAVARRGSNVAEQLDVTPLGVITEQEWLAHWPTAVNDSRGGSKKRKGMR
B2: Mtb-MazG E122A (enzyme)
chain: B1 chain with A119E, E122A
B3: Mtb-MazG E138A (enzyme)
chain: B1 chain with A119E, E138A
B4: Mtb-MazG D141A (enzyme)
chain: B1 chain with A119E, D141A
B5: Mtb-MazG (1–185) (domain or fragment)
chain: MIVVLVDPRRPTLVPVEAIEFLRGEVQYTEEMPVAVPWSLPAARSAHAGNDAPVLLSSDPNHPAVITRLAAGARLISAPDSQRGERLVDAVAMMDKLRTAGPWESEQTHDSLRRYLLEETYELLDAVRSGSVDQLREELGDLLLQVLFHARIAEDASQSPFTIDDVADTLMRKLGNRAPGVLAGE

Target: the molecule itself
Assay: SEC

| Protein | stoichiometry N |
| --- | --- |
| B1 | 2 |
| B2 | 2 |
| B3 | 2 |
| B4 | 2 |
| B5 | 2 |
